US10464978B2, “Peptides and combination of peptides for use in immunotherapy against ovarian cancer and other cancers” (immatics biotechnologies GmbH, priority 2015, dated 2019)

What follows are substances tested against HLA-A*02:01 (Homo sapiens, UniProt P04439, D140Y/D185E/D98H/E176V/E277Q/G131W/G231S/I119V/I121R/I166T/I218V/L300P/L318F/N151K/N90K/P208A/P217A/Q86G/Q94H/R138H/R169H/T345S) (assay: MHC binding assay: UV-ligand exchange with beta2m ELISA (peptide exchange yield)). Settings: binding to HLA-A*02:01.
In short: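 Values give exchange yield, measured by β2m ELISA: 100-fold-diluted monomers bound to streptavidin plates (1h, 37° C), probed with HRP anti-β2m at 2 ug/ml and read at 450 nm after TMB. Monomers came from UV-triggered cleavage of a photolabile peptide and exchange for the test peptide.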

| Peptide exchange (MHC class I binding score, peptide exchange yield) | Substance |
| --- | --- |
| “+++” (≥50 = +++) | 250 (ALSEEGLLVYL; listed as Homo sapiens) [compound 250] |
| “++” (≥20% = ++) | 251 (ALYTGFSILV; listed as Homo sapiens) [compound 251] |
| “+++” (≥50 = +++) | 252 (LLIGTDVSL; listed as Homo sapiens) [compound 252] |
| “++” (≥20% = ++) | 253 (GLDAATATV; listed as Homo sapiens) [compound 253] |
| “+++” (≥50 = +++) | 254 (TLLAFIMEL; listed as Homo sapiens) [compound 254] |
| “+++” (≥50 = +++) | 255 (VLASYNLTV; listed as Homo sapiens) [compound 255] |
| “+++” (≥50 = +++) | 256 (FLPPEHTIVYI; listed as Homo sapiens) [compound 256] |
| “+++” (≥50 = +++) | 257 (SIFSAFLSV; listed as Homo sapiens) [compound 257] |
| “++” (≥20% = ++) | 258 (ELAERVPAI; listed as Homo sapiens) [compound 258] |
| “++” (≥20% = ++) | 261 (YVLEFLEEI; listed as Homo sapiens) [compound 261] |
| “+++” (≥50 = +++) | 262 (LLWGDLIWL; listed as Homo sapiens) [compound 262] |
| “+++” (≥50 = +++) | 263 (LLVSNLDFGV; listed as Homo sapiens) [compound 263] |
| “+++” (≥50 = +++) | 264 (SLQEQLHSV; listed as Homo sapiens) [compound 264] |
| “++” (≥20% = ++) | 265 (LLFGGTKTV; listed as Homo sapiens) [compound 265] |
| “+++” (≥50 = +++) | 266 (KITDTLIHL; listed as Homo sapiens) [compound 266] |
| “+++” (≥50 = +++) | 267 (ALQDFLLSV; listed as Homo sapiens) [compound 267] |
| “++” (≥20% = ++) | 269 (RVLEVGALQAV; listed as Homo sapiens) [compound 269] |
| “++” (≥20% = ++) | 270 (LLLDEEGTFSL; listed as Homo sapiens) [compound 270] |
| “+++” (≥50 = +++) | 271 (LVYPLELYPA; listed as Homo sapiens) [compound 271] |
| “+++” (≥50 = +++) | 272 (ALGNTVPAV; listed as Homo sapiens) [compound 272] |
| “++” (≥20% = ++) | 273 (NLFQSVREV; listed as Homo sapiens) [compound 273] |
| “++” (≥20% = ++) | 274 (SLLFSLFEA; listed as Homo sapiens) [compound 274] |
| “++” (≥20% = ++) | 275 (YLVYILNEL; listed as Homo sapiens) [compound 275] |

| Peptide exchange (MHC class I binding score, peptide exchange yield) | Substance |
| --- | --- |
| “+++” (≥50 = +++) | 276 (ALFTFSPLTV; listed as Homo sapiens) [compound 276] |
| “++” (≥20% = ++) | 277 (LLPPLESLATV; listed as Homo sapiens) [compound 277] |
| “++” (≥20% = ++) | 278 (QLLDVVLTI; listed as Homo sapiens) [compound 278] |
| “++” (≥20% = ++) | 279 (ALWGGTQPLL; listed as Homo sapiens) [compound 279] |
| “+++” (≥50 = +++) | 280 (VLPDPEVLEAV; listed as Homo sapiens) [compound 280] |
| “+++” (≥50 = +++) | 281 (ILRESTEEL; listed as Homo sapiens) [compound 281] |
| “+++” (≥50 = +++) | 282 (LLADVVPTT; listed as Homo sapiens) [compound 282] |
| “+++” (≥50 = +++) | 284 (ILLSQTTGV; listed as Homo sapiens) [compound 284] |
| “+++” (≥50 = +++) | 285 (QLLHVGVTV; listed as Homo sapiens) [compound 285] |
| “+++” (≥50 = +++) | 286 (YLFPGIPEL; listed as Homo sapiens) [compound 286] |
| “+++” (≥50 = +++) | 287 (FLNEFFLNV; listed as Homo sapiens) [compound 287] |
| “+++” (≥50 = +++) | 288 (NLINEINGV; listed as Homo sapiens) [compound 288] |
| “++++” (≥75% = ++++) | 289 (VLLEIEDLQV; listed as Homo sapiens) [compound 289] |
| “+++” (≥50 = +++) | 295 (VLDRESPNV; listed as Homo sapiens) [compound 295] |
| “+++” (≥50 = +++) | 296 (FMEGAIIYV; listed as Homo sapiens) [compound 296] |
| “+++” (≥50 = +++) | 297 (VLADIELAQA; listed as Homo sapiens) [compound 297] |
| “+++” (≥50 = +++) | 298 (VMITKLVEV; listed as Homo sapiens) [compound 298] |
| “+++” (≥50 = +++) | 299 (YLLETSGNL; listed as Homo sapiens) [compound 299] |
| “+++” (≥50 = +++) | 300 (ALLGQTFSL; listed as Homo sapiens) [compound 300] |
| “+++” (≥50 = +++) | 301 (FLVEDLVDSL; listed as Homo sapiens) [compound 301] |
| “+++” (≥50 = +++) | 302 (ALLQEGEVYSA; listed as Homo sapiens) [compound 302] |
| “++++” (≥75% = ++++) | 303 (AILPQLFMV; listed as Homo sapiens) [compound 303] |
| “+++” (≥50 = +++) | 304 (MTLGQIYYL; listed as Homo sapiens) [compound 304] |

| Peptide exchange (MHC class I binding score, peptide exchange yield) | Substance |
| --- | --- |
| “++++” (≥75% = ++++) | 305 (SIANFSEFYV; listed as Homo sapiens) [compound 305] |
| “+++” (≥50 = +++) | 306 (ALVNVQIPL; listed as Homo sapiens) [compound 306] |
| “+++” (≥50 = +++) | 307 (ALPVSLPQI; listed as Homo sapiens) [compound 307] |
| “+++” (≥50 = +++) | 308 (SQYSGQLHEV; listed as Homo sapiens) [compound 308] |
| “+++” (≥50 = +++) | 309 (GLFDGVPTTA; listed as Homo sapiens) [compound 309] |
| “++++” (≥75% = ++++) | 310 (FLVDTPLARA; listed as Homo sapiens) [compound 310] |
| “+++” (≥50 = +++) | 311 (RLYTGMHTV; listed as Homo sapiens) [compound 311] |
| “+++” (≥50 = +++) | 312 (IISDLTIAL; listed as Homo sapiens) [compound 312] |
| “+++” (≥50 = +++) | 313 (VLFDDELLMV; listed as Homo sapiens) [compound 313] |
| “+++” (≥50 = +++) | 314 (ALIAEGIALV; listed as Homo sapiens) [compound 314] |
| “+++” (≥50 = +++) | 315 (YLQDVVEQA; listed as Homo sapiens) [compound 315] |
| “+++” (≥50 = +++) | 316 (ILLERLWYV; listed as Homo sapiens) [compound 316] |
| “+++” (≥50 = +++) | 317 (SLAALVVHV; listed as Homo sapiens) [compound 317] |
| “++” (≥20% = ++) | 318 (GLINTGVLSV; listed as Homo sapiens) [compound 318] |
| “++” (≥20% = ++) | 319 (SLEPQIQPV; listed as Homo sapiens) [compound 319] |
| “++++” (≥75% = ++++) | 320 (KMFEFVEPLL; listed as Homo sapiens) [compound 320] |
| “++++” (≥75% = ++++) | 321 (GLFEDVTQPGILL; listed as Homo sapiens) [compound 321] |
| “+++” (≥50 = +++) | 322 (TLMTSLPAL; listed as Homo sapiens) [compound 322] |
| “+++” (≥50 = +++) | 324 (FLYDEIEAEV; listed as Homo sapiens) [compound 324] |
| “+++” (≥50 = +++) | 325 (FIMPATVADATAV; listed as Homo sapiens) [compound 325] |
| “+++” (≥50 = +++) | 326 (FLPEALDFV; listed as Homo sapiens) [compound 326] |
